T1: FcγRIIb extracellular domain with C-terminal His tag (human, UniProt P31994 43-217)
T1 construct: extracellular domain; Soluble receptor expressed in FreeStyle293 cells, used as analyte in Biacore; also called FcgRIIb; 2b; not shown: His tag attached to the C terminus
T1 sequence (looked up): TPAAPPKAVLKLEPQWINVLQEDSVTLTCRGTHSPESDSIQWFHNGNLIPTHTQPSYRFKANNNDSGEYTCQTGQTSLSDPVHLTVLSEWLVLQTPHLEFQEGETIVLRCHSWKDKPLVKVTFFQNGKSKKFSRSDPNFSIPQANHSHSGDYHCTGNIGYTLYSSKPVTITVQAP

B1: GpH7-B3 variant S324_01G/GpL16-k0 (Ho Ab) (antibody, human IgG1, kappa)
heavy: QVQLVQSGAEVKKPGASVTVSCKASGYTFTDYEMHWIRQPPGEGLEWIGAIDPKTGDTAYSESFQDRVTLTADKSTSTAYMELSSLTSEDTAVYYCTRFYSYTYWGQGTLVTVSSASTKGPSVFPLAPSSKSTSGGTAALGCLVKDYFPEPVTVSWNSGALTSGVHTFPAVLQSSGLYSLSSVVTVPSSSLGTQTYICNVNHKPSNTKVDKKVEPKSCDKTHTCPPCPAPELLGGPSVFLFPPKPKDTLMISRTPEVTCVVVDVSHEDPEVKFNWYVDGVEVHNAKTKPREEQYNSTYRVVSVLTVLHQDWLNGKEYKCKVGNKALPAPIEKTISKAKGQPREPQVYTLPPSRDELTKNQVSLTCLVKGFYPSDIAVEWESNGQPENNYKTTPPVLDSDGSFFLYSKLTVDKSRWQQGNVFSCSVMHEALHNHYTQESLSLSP
light: DIVMTQSPLSLPVTPGEPASISCQASESLVHSNRNTYLHWYLQKPGQSPQLLIYKVSNRFSGVPDRFSGSGSGTDFTLKISRVEAEDVGVYYCSQNTHVPPTFGQGTKVEIERTVAAPSVFIFPPSDEQLKSGTASVVCLLNNFYPREAKVQWKVDNALQSGNSQESVTEQDSKDSTYSLSSTLTLSKADYEKHKVYACEVTHQGLSSPVTKSFNRGEC
notes: Homodimerized anti-glypican-3 antibody; the alteration stands in both H chains
B2: GpH7-B3 variant S239_18N/GpL16-k0 (Ho Ab) (antibody, human IgG1, kappa)
heavy: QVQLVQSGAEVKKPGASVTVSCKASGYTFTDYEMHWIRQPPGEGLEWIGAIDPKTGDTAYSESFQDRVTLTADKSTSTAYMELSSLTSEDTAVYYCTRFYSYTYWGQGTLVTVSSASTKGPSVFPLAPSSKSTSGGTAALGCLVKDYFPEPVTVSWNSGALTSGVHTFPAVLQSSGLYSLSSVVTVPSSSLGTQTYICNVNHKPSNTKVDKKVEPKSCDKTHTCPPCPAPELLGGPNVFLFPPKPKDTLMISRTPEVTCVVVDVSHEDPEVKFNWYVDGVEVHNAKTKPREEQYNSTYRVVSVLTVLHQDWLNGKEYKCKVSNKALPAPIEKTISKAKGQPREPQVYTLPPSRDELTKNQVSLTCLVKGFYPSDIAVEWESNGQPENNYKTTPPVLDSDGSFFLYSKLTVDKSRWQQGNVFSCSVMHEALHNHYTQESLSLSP
light: B1 light
notes: as for B1
B3: GpH7-B3 variant T335_06M/GpL16-k0 (Ho Ab) (antibody, human IgG1, kappa)
heavy: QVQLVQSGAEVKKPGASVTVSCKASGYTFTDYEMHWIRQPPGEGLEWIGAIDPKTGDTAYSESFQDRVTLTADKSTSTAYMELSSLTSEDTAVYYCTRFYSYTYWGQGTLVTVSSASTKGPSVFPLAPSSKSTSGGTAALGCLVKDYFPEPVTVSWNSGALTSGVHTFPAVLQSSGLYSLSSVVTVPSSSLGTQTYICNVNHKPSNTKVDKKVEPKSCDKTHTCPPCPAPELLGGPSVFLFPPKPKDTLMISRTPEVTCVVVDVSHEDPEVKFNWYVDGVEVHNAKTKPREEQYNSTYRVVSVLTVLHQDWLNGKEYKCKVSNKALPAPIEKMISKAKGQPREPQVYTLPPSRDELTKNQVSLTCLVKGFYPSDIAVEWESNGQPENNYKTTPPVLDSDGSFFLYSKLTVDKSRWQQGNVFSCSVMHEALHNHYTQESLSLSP
light: B1 light
notes: as for B1
B4: GpH7-B3 variant S324_09D/GpL16-k0 (Ho Ab) (antibody, human IgG1, kappa)
heavy: not shown
light: B1 light
notes: as for B1
B5: GpH7-B3 variant T335_09D/GpL16-k0 (Ho Ab) (antibody, human IgG1, kappa)
heavy: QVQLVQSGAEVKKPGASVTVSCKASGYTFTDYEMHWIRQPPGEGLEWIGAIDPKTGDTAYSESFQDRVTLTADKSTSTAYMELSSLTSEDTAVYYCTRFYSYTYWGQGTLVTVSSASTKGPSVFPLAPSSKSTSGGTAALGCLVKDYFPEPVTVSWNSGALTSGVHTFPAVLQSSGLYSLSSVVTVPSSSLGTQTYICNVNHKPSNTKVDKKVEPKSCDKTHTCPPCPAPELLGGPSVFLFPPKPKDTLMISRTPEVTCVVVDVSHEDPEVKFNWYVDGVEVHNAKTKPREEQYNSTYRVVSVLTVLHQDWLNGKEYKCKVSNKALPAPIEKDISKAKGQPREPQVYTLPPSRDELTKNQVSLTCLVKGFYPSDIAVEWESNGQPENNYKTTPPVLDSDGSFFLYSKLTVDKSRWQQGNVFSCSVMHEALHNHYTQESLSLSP
light: B1 light
notes: as for B1
B6: GpH7-B3 variant T335_05P/GpL16-k0 (Ho Ab) (antibody, human IgG1, kappa)
heavy: not shown
light: B1 light
notes: as for B1
B7: GpH7-B3 variant T335_08L/GpL16-k0 (Ho Ab) (antibody, human IgG1, kappa)
heavy: not shown
light: B1 light
notes: as for B1
B8: GpH7-B3 variant S324_06M/GpL16-k0 (Ho Ab) (antibody, human IgG1, kappa)
heavy: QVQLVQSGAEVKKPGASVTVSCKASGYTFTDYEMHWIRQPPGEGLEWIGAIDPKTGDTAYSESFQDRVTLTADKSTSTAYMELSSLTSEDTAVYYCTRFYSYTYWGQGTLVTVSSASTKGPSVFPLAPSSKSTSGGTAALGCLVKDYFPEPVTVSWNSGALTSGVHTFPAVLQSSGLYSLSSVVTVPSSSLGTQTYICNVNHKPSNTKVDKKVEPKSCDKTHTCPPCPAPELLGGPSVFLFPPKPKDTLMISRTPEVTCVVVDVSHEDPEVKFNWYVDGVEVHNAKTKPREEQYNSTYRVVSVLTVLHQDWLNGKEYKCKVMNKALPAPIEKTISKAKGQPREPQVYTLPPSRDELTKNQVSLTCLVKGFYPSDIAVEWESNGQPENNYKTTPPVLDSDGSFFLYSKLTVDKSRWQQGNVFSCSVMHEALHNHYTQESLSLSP
light: B1 light
notes: as for B1
B9: GpH7-B3 variant S298_03V/GpL16-k0 (Ho Ab) (antibody, human IgG1, kappa)
heavy: not shown
light: B1 light
notes: as for B1
B10: GpH7-B3 variant S324_20W/GpL16-k0 (Ho Ab) (antibody, human IgG1, kappa)
heavy: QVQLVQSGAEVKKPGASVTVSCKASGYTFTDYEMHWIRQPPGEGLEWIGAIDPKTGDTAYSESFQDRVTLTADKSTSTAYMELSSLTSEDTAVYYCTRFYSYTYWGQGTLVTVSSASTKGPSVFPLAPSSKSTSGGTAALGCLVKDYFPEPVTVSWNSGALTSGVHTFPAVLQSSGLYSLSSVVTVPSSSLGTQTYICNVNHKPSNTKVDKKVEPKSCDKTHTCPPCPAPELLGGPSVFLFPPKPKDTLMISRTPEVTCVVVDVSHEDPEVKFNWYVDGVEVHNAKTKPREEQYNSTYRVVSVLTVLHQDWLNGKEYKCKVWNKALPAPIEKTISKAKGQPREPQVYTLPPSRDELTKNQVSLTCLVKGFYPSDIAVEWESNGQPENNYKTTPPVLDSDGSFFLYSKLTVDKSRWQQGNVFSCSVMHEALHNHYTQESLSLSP
light: B1 light
notes: as for B1
B11: GpH7-B3 variant S239_10E/GpL16-k0 (Ho Ab) (antibody, human IgG1, kappa)
heavy: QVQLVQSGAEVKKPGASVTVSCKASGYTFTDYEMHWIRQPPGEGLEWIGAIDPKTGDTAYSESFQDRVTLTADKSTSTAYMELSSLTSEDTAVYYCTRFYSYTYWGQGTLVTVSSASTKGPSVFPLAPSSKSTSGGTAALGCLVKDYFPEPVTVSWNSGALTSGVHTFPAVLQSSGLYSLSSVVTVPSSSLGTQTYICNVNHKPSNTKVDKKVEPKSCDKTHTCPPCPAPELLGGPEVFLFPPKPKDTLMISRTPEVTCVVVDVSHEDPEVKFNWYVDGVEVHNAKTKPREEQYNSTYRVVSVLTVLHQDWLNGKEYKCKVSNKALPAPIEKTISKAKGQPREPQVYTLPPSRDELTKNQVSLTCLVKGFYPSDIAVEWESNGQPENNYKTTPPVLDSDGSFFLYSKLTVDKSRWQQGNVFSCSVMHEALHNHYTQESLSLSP
light: B1 light
notes: Homodimerized anti-glypican-3 antibody; the alteration stands in both H chains (GpH7-B3 = GpH7-G1d with K439E)
B12: GpH7-B3 variant S324_14T/GpL16-k0 (Ho Ab) (antibody, human IgG1, kappa)
heavy: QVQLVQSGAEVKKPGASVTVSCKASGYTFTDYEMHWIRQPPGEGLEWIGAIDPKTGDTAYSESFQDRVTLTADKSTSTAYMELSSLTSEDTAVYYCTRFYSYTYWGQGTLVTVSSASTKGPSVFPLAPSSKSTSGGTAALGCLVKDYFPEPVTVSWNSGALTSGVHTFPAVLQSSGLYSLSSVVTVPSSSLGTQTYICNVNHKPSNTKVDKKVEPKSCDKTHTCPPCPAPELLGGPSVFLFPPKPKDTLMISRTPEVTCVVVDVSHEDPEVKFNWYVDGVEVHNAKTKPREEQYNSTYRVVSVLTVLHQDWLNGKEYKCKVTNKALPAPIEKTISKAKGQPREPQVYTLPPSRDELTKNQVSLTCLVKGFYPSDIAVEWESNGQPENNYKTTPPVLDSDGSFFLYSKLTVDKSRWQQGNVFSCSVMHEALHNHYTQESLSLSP
light: B1 light
notes: as for B1
B13: GpH7-B3 variant Y300_08L/GpL16-k0 (Ho Ab) (antibody, human IgG1, kappa)
heavy: not shown
light: B1 light
notes: as for B1
B14: GpH7-B3 variant Y296_20W/GpL16-k0 (Ho Ab) (antibody, human IgG1, kappa)
heavy: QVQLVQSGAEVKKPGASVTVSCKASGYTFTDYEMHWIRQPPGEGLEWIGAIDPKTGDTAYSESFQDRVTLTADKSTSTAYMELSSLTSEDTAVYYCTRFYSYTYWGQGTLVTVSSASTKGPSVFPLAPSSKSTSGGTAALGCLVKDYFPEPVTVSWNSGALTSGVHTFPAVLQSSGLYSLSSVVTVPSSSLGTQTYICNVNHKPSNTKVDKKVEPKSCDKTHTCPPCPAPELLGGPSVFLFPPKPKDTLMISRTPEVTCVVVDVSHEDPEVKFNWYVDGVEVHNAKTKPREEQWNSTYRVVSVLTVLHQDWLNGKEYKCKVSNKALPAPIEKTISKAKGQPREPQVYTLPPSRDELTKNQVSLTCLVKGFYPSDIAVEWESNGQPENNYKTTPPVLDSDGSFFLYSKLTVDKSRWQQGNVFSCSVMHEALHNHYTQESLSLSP
light: B1 light
notes: as for B1
B15: GpH7-B3 variant S337_16H/GpL16-k0 (Ho Ab) (antibody, human IgG1, kappa)
heavy: not shown
light: B1 light
notes: as for B1
B16: GpH7-B3 variant S337_01G/GpL16-k0 (Ho Ab) (antibody, human IgG1, kappa)
heavy: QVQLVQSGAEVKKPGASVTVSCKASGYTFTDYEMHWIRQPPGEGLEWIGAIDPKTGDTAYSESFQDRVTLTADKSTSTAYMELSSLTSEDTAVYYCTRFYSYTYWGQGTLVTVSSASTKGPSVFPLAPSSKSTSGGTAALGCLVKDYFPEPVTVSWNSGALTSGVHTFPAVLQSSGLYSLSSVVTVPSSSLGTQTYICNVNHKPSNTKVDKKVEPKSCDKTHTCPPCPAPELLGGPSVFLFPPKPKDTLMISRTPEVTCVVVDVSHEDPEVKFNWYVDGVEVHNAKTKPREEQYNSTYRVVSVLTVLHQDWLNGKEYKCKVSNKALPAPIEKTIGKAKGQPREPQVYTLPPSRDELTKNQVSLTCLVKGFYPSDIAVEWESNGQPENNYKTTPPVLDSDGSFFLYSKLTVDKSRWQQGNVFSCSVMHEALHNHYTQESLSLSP
light: B1 light
notes: as for B1
B17: GpH7-A5/GpH7-B3 variant H268_13S/GpL16-k0 (antibody, human IgG1, kappa)
heavy 1: not shown
heavy 2: not shown
light: B1 light
notes: Heterodimerized antibody (He Ab) with the mutation in only one H chain; also called He Ab H268S
B18: GpH7-A5/GpH7-B3 variant H268_18N/GpL16-k0 (antibody, human IgG1, kappa)
heavy 1: not shown
heavy 2: not shown
light: B1 light
notes: Heterodimerized antibody (He Ab) with the mutation in only one H chain; also called He Ab H268N
B19: GpH7-A5/GpH7-B3 variant S267_09D/GpL16-k0 (antibody, human IgG1, kappa)
heavy 1: not shown
heavy 2: not shown
light: B1 light
notes: Heterodimerized antibody (He Ab) with the mutation in only one H chain; also called He Ab S267D
B20: GpH7-A5/GpH7-B3 variant S267_10E/GpL16-k0 (antibody, human IgG1, kappa)
heavy 1: not shown
heavy 2: not shown
light: B1 light
notes: Heterodimerized antibody (He Ab) with the mutation in only one H chain; also called He Ab S267E

For the first experiment, the target named is T2, FcγRIIIa (human, UniProt P08637 17-208).
T2 construct: extracellular domain; also called 3a; FcgRIIIa
T2 sequence (P08637 17-208): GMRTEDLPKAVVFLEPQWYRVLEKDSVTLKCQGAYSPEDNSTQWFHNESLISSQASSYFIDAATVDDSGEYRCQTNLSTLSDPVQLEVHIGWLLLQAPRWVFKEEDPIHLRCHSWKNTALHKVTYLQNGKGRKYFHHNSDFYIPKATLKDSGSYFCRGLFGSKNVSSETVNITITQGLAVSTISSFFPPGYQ
The experiment is described as follows: SPR (Biacore), antibody captured on antigen-peptide chip, FcγR as analyte; binding of Ho Ab / binding of HoCon Ab GpH7-B3/GpL16-k0 x 100. The procedure:
(§1) Analysis of interaction between objective antibody and the FcγR was carried out using Biacore T100 (GE Healthcare). HBS-EP+ (GE Healthcare) was used as the running buffer, and the measurement temperature was set to 25° C. Chips produced by immobilizing the antigen peptide by the amine coupling method to a Series S Sencor Chip CM5 (GE Healthcare), or alternatively, chips produced by allowing preliminarily biotinylated antigen peptides to interact with and immobilize onto a Series S Sensor Chip SA (certified) (GE Healthcare) were used. Antibodies of interest were captured onto an antigen peptide-immobilized chip, and allowed to interact to each FcγR diluted with running buffer. To regenerate and repeatedly use the chip, the antibodies captured on the chip were washed off by reacting 10 mM glycine-HCl, pH 1.5.
For orientation: SPR reads the build-up and loss of mass on a sensor chip optically.
Take B1: the Ho/Con_3a was 119 relative to control = 100.
Turning to B2, the Ho/Con_3a is 116 relative to control = 100.
Still for that read-out and setting: then B3, with 107 relative to control = 100.
On the same count and under the same terms, then B4, with 101 relative to control = 100; and B5, with 114 relative to control = 100; and B6, with 119 relative to control = 100.
On the same count and under the same terms, next, B7: 103 relative to control = 100; B8: 114 relative to control = 100; B9: 110 relative to control = 100.
B10: the Ho/Con_3a is 102 relative to control = 100.
On the same count and under the same terms, then B11, with 252 relative to control = 100; and B12, with 108 relative to control = 100.
The same measure, in the same setting: then B13, with 105 relative to control = 100.
With B14, the Ho/Con_3a is 146 relative to control = 100.
As to B15, the Ho/Con_3a was 112 relative to control = 100.
The same measure, in the same setting: then B16, with 108 relative to control = 100.

Another experiment deals with T3, FcγRIIIa extracellular domain with C-terminal His tag (human, UniProt P08637 17-208).
T3 construct: extracellular domain; also called FcgRIIIa; 3a; not shown: His tag attached to the C terminus
T3 sequence (P08637 17-208): as above
The experiment is described as follows: SPR (Biacore); He/Con_3a (FcγRIIIa) divided by He/Con_2b (FcγRIIb).
On to B17, for which the “He_3a/2b (IIIa/IIb)” value is 0.76 ratio.
The same measure, in the same setting: then B18, with 0.67 ratio; and B19, with 0.58 ratio.
On to B20, for which the “He_3a/2b (IIIa/IIb)” value came out at 0.24 ratio.

The next experiment deals with T3, FcγRIIIa extracellular domain with …. Put plainly: SPR (Biacore T100), antibody captured on antigen peptide chip, FcγR as analyte. The method, then: as §1
Consider B17, for which the He/Con_3a was 122 relative binding, GpH7-A5/GpH7-B3/GpL16-k0 = 100.
Still for that read-out and setting: next, B18: 104 relative binding, GpH7-A5/GpH7-B3/GpL16-k0 = 100; B19: 181 relative binding, GpH7-A5/GpH7-B3/GpL16-k0 = 100; B20: 91.9 relative binding, GpH7-A5/GpH7-B3/GpL16-k0 = 100.

For the next experiment, the target named is T1, FcγRIIb extracellular domain with …. The experiment is described as above. The procedure: as §1
Regarding B17, the He/Con_2b is 160 relative binding, GpH7-A5/GpH7-B3/GpL16-k0 = 100.
For the molecule B18, the He/Con_2b was 156 relative binding, GpH7-A5/GpH7-B3/GpL16-k0 = 100.
The same measure, in the same setting: next, B19: 310 relative binding, GpH7-A5/GpH7-B3/GpL16-k0 = 100.
With B20, the He/Con_2b is 379 relative binding, GpH7-A5/GpH7-B3/GpL16-k0 = 100.

These data come from US20150344570A1 (published 2015).
